# Data taken from patent publication US20260176335A1 (TRUSTEES OF COLUMBIA UNIVERSITY IN THE CITY OF NEW YORK, published 2026).
# T1: human serum amyloid A1 (SAA1) (human, UniProt P0DJI8 19-122)
# T1 sequence (looked up): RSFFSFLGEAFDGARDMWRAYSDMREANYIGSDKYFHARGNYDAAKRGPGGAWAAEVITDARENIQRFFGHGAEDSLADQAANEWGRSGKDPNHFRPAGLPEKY
# B1: murine anti-SAA1 18A3 antibody (antibody, V domains shown)
# VH: DVQLVESGGGLVQSGGSRKLSCAASGFTFSRFGMHWVRQAPEKGLEWVAYISRGSTKIYYADTVKGRFTISRDNPRNTLFLQMTSLRSEDTAMYYCARSLIYYDYDGFGYWGQGTLVTVSA
# VL: DVLMTQTPLSLPLSLGDQASISCRSSQSIVHSNGNTYLEWYLQKPGQSPKLLIYKVSNRFSGVPDRFSGSGSGTDFTLKISRVEAEDLGVYYCFQGSHVPPTFGGGTKLEIK
# notes: Murine hybridoma monoclonal antibody; Tested as hybridoma supernatant or as purified antibody from subclone 18A3-S1-F / 18A3-S1; also called 18A3-S1-F; 18A3-S1
# Tests used:
# [1] = molecular target: T1, human serum amyloid A1 (SAA1); assay: cell-based or functional assay
# [2] = molecular target: T1, human serum amyloid A1 (SAA1); assay: Kd calculated from competitive binding curves (competitive peptide 0.625-80 nM against SAA1 at 150 ng/ml), NFκB-luciferase reporter cell readout
# Method: Raw 264.7-NFκB-Luc cells were seeded at a density of 60,000 cells in 40 μl media/well in a 96-well plate. The plate was placed at 37° C. in a 5% CO₂ incubator overnight to allow cells to adhere. 5 μL of SAA1 antigen solution (150 ng/ml) was added to each well. 10 μL of the competitive antigen standard solution was added to the respective wells. 10 μL of the purified antibody (18A3-S1-F) solution was added to each well.
# The plate was incubated at 37° C. in a 5% CO₂ incubator for 2 hours to allow binding between the antibody and antigens. 10 μL of the viability dye (i.e., the Cell Titer Fluor reagent; Promega) was added, and the plate was rocked for 5 minutes and incubated at 37° C. in a 5% CO₂ incubator for 30 minutes. Then […] reading was taken with 7-amino-4-trifluoromethyl-coumarin (AFC) (excitation 405 nm/emission […]). After 3 hours, 1:1 Bright Glo Luciferase reagent (Promega) was added, and the plate was rocked for 5 minutes in dark (covered with foil) before the reading was taken.
# The dissociation constant (Kd) was calculated from the competitive binding curves (FIG. 4E). The lower the Kd value, the higher the binding affinity of the antibody.
binder,measurement,setting,value
B1,"EC50 (half-maximal inhibition of SAA1-induced NFκβ activation, reporter assay)",[1],2.55 nM
same,Kd,[2],0.94 to 1.12 nM
